Numbering of substitutions follows the chain as printed. Names may count otherwise.
T1: cynomolgus SIRP-α D1 domain (SEQ ID NO:11) (cynomolgus, UniProt Q5TFQ8 30-148 (human entry), limits assumed)
T1 construct: also called cyno1
T1 chain: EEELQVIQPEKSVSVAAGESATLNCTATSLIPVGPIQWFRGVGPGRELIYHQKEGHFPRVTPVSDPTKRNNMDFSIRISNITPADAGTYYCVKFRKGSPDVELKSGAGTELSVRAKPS

T2: BALBc mouse SIRP-α (mouse (BALB/c strain))
T2 chain: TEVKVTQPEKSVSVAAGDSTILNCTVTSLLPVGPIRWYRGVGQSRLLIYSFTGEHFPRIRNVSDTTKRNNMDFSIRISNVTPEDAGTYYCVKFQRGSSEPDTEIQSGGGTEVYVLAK

T3: cynomolgus SIRP-α (cynomolgus monkey, UniProt Q5TFQ8 30-148 (human entry), limits assumed)
T3 construct: also called cyno1
T3 chain: T1 chain

T4: NOD mouse SIRP-α (mouse (NOD strain))
T4 chain: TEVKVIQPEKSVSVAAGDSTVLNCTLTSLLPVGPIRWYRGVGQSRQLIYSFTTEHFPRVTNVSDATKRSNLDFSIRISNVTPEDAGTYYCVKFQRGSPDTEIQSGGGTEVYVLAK

T5: BL6 mouse SIRP-α (mouse (C57BL/6 strain), UniProt P97797 32-148)
T5 construct: also called C57BL/6
T5 sequence: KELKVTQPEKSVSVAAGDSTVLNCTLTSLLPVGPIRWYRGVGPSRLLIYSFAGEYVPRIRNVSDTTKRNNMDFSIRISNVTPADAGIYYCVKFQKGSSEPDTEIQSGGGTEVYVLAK

T6: mouse 129 SIRP-α (mouse (129 strain), UniProt P97797 32-150)
T6 construct: also called m129
T6 chain: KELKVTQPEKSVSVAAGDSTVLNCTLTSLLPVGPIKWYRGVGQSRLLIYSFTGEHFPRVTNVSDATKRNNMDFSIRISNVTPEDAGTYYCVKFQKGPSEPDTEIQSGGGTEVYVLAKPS

T7: mouse 129 SIRP-α D1 domain (mouse (129 strain), UniProt P97797 32-150)
T7 construct: also called m129
T7 chain: T6 chain

T8: C57BL/6 mouse SIRP-α D1 domain (mouse (C57BL/6 strain), UniProt P97797 32-148)
T8 sequence: T5 sequence

T9: high affinity SIRP-α D1 variant CV1-3
T9 chain: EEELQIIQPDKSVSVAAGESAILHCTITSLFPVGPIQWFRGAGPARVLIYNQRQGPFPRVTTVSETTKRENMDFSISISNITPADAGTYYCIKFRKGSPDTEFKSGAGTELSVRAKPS

T10: cynomolgus SIRP-α D1 domain (cyno2) (cynomolgus monkey, UniProt Q5TFQ8 30-148 (human entry), limits assumed)
T10 chain: T1 chain with E19D, A27V, T28S, V42A, H51N, Q52L, P62A

B1: antibody 119 variant mut/wt (VL mut all / VH wt) (antibody, human IgG1, V domains shown)
VH: DVQLLESGGGVVQPGGSLRLSCAASGFSFSNFAMTWVRQAPGEGLEWVSTIGSGDTYYADSVKGRFTISRDNSKNTLYLQMNSLRAEDTAVYYCAKDSTVSWSGDFFDYWGLGTLVTVSS
VL: EIVLTQSPATLSVSPGERATLSCRASQNVKNDLAWYQQKPGQAPRLLIYAARIRETGIPARFSGSGSGTEFTLTISSLQSEDFAVYYCQQYYDWPPFTFGGGTKVEIK
notes: Human IgG1 with L234A/L235A/G237A/N297A; Labels are in the order VL/VH
B2: antibody 119 variant, light chain Mut / heavy chain wt (antibody, V domains shown)
VH: B1 VH
VL: B1 VL
B3: antibody 119 variant, light chain wt / heavy chain Mut (antibody, human IgG1, V domains shown)
VH: B1 VH with D1E, M34V, E43K, L112Q
VL: B1 VL with L21F, K39R, A60E, S76T
B4: antibody 135 variant, light chain wt / heavy chain Mut (antibody, V domains shown)
VH: EVQLVESGGGVVQPGGSLRLSCAASGFSFSIYAVSWVRQAPGKGLEWVSTIGADDTYYADSVKGRFTISRDNSKNTLYLQMNSLRAEDTAVYYCAKDSTVGWSGDFFDYWGQGTLVTVSS
VL: EIVLTQSPATLSVSPGERVTFSCRASQNVRSDIAWYQQKPGQAPRLLIYAASSRDTGIPDRFSGSGSGTDFTLTISSLQSEDFGVYYCQQYYDWPPFTFGGGTKVEIK
B5: antibody 135 variant, light chain Mut / heavy chain wt (antibody, V domains shown)
VH: B4 VH with E1D, Q13R, G16E, V34M, K43E, Q112L
VL: B4 VL with F21L, D60A
B6: antibody 119 variant Mut/mut_V34M (antibody, human IgG1, V domains shown)
VH: B1 VH with D1E, E43K, L112Q
VL: B1 VL
notes: as for B1
B7: antibody 135 (antibody, V domains shown)
VH: B4 VH with E1D, Q13R, G16E, V34M, K43E, Q112L
VL: B4 VL
notes: also called AB135; S135
B8: AB119 Wt/wt with hIgG4 (antibody, V domains shown)
VH: B1 VH
VL: B1 VL with L21F, K39R, A60E, S76T
notes: Human IgG4 Fc region with S228P (EU numbering); only variable domains tied to the clone
B9: S163 (scFv, V domains shown)
VH: DVQLVESGGGLVRPGESLRLSCAASGFTFTNYAVTWVRQAPGEGLEWVSLISVTGTTYYADSVKGRFTISRDNSKSTLYLQMNGLRAEDTAVYYCAKVTWKNVFDYWGLGTLVTVSS
VL: EIVLTQSPGTLSVSPGERATFSCRASQTVGSKLAWYQQKPGQAPRLLIYDANTRATGIPARFSGSGSGTEFTLTISSLQSEDFAVYYCQQHTDWPPYTFGGGTKVEIK
B10: S162 (scFv, V domains shown)
VH: B9 VH with G84S
VL: B9 VL
B11: S164 (scFv, V domains shown)
VH: B9 VH
VL: B9 VL with G66R

Tests used:
[1] = biological target: T11, human SIRP-α v1 D1 domain (human, UniProt P78324 31-149); test: SPR, antibody immobilised on GLC chip
T11 construct: also called human v1; human α v1
Procedure: (§1) All experiments were performed at 25° C. using a SPR-based ProteOn XPR36 biosensor (BioRad, Inc, Hercules, Calif.) equipped with GLC or NLC sensor chips. […] Purification was carried out by standard Protein A affinity column chromatography and eluted antibodies were stored in PBS buffer.
(§2) For the method using GLC chip, the analytes were injected and flowed over anti-SIRPα antibodies immobilized (˜1000 RUs) on GLC chips using Proteon™ Amine Coupling Kit. For the immobilization step, GLC chip was activated with EDAC/Sulpho-NHS 1:1 (Biorad) diluted 1/100 for 300 s at 25 μL/min. Anti-SIRPα antibodies were diluted to 80 nM concentration in 10 mM sodium acetate buffer pH 4.5 and immobilized to the chip at 30 μL/min for 50 s. Chip was inactivated with ethanolamine for 300 s at 25 μL/min. The analytes (e.g., SIRP-α from different species, SIRP-β, SIRP-γ) were injected in a “one-shot” kinetic mode at nominal concentrations of 100, 33, 11, 3.7, 1.2 and 0 nM. Association times were monitored for 90 s at 100 μL/min, and dissociation times were monitored for 1200 s. The surfaces were regenerated with a 2:1 v/v blend of Pierce IgG elution buffer/4M NaCl.
T11 sequence (P78324 31-149 limits assumed): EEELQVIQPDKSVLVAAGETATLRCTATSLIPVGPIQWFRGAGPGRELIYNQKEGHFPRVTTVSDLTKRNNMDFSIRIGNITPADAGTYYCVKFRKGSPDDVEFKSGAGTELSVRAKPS

[2] = biological target: T1, cynomolgus SIRP-α D1 domain (SEQ ID …); test: SPR, antibody immobilised on GLC chip
Procedure: as §1, §2

[3] = biological target: T12, human SIRP-α v2 D1 domain (human); test: SPR, antibody immobilised on GLC chip
T12 construct: also called human v2; human α v2
Procedure: as §1, §2
T12 sequence (chain, as listed by the source limits assumed): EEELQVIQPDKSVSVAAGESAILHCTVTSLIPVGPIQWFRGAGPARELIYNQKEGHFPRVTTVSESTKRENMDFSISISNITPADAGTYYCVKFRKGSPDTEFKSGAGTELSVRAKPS

[4] = biological target: T2, BALBc mouse SIRP-α; test: SPR, antibody on GLC chip
How it was run: (§3)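 Protein A-purified antibodies were diluted to 80 nM in 10 mM sodium acetate pH 4.5 and amine-coupled (~1000 RU) to a GLC chip of a ProteOn XPR36 biosensor. SIRP analytes were injected one-shot at 100, 33, 11, 3.7, 1.2 and 0 nM in PBS pH 7.4 with 0.01% Tween-20 at 25° C. Association ran 90 s at 100 μL/min and dissociation 1200 s. KD came from double-referenced data fitted globally to a Langmuir model, as kd/ka.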

[5] = biological target: T3, cynomolgus SIRP-α; test: SPR, antibody on GLC chip
How it was run: as §3

[6] = biological target: T4, NOD mouse SIRP-α; test: SPR, antibody on GLC chip
How it was run: as §3

[7] = biological target: T13, human SIRPγ isoform 1 (human, UniProt Q9P1W8 29-147); test: SPR, antibody on GLC chip
T13 construct: also called Gamma; Human SIRPg
How it was run: as §3
T13 sequence (Q9P1W8 29-147 limits assumed): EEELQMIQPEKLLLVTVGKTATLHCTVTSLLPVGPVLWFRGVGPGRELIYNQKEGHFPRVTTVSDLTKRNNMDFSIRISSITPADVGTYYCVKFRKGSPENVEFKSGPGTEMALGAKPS

[8] = biological target: T14, human SIRP-α v1 (human, UniProt P78324 31-149); test: SPR, antibody on GLC chip
T14 construct: also called Human v1; Human V1
T14 sequence (P78324 31-149 limits assumed): as the sequence (P78324 31-149 limits assumed) above
How it was run: as §3

[9] = biological target: T15, human SIRP-α v2 (human); test: SPR, antibody on GLC chip
T15 construct: also called Human v2; Human V2
T15 sequence (chain, as listed by the source limits assumed): as the sequence (chain, as listed by the source limits assumed) above
How it was run: as §3

[10] = biological target: T5, BL6 mouse SIRP-α; test: SPR, antibody on GLC chip
How it was run: as §3

[11] = biological target: T14, human SIRP-α v1; test: SPR
How it was run: (§4)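 Antibodies were amine-coupled (GLC chip) or captured via biotinylated Protein A (NLC chip) on a ProteOn XPR36, and SIRP analytes were injected in one-shot kinetic mode at 25° C in PBS pH 7.4 with 0.01% Tween-20. KD is kd/ka from apparent rate constants given by a global simple Langmuir fit of double-referenced data, with analyte concentrations nominal.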

[12] = biological target: T15, human SIRP-α v2; test: SPR
How it was run: as §4

[13] = biological target: T16, human SIRPβ isoform 1 (human, UniProt O00241 30-148); test: SPR Koff +/-
T16 construct: also called Beta; Human SIRPb
How it was run: as §4
T16 sequence (O00241 30-148 limits assumed): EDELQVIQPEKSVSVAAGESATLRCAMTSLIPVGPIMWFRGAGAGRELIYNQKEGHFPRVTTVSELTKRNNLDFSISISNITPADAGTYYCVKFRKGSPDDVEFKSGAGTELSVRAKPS

[14] = biological target: T6, mouse 129 SIRP-α; test: SPR Koff +/-
How it was run: as §4

[15] = biological target: T7, mouse 129 SIRP-α D1 domain; test: SPR
How it was run: (§5)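 Pre-filtered culture media supplied the scFv-Fc antibody clones, which were captured by anti-human IgG Fc amine-coupled (about 4000 RU) to a GLC chip on a ProteOn XPR36. SIRP analytes were flowed in PBS pH 7.4 with 0.01% Tween-20 at 25° C. Interspot and buffer-blank responses were subtracted from the data, which were then fitted to a 1:1 Langmuir model. Dissociation rate constants (koff) were derived from this fitting.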

[16] = biological target: T8, C57BL/6 mouse SIRP-α D1 domain; test: SPR
How it was run: as §5

[17] = biological target: T17, human SIRPγ isoform 1 (human, UniProt Q9P1W8 29-147); test: SPR, Langmuir fit
T17 construct: also called SIRPg; sirpg
How it was run: as §5
T17 sequence (Q9P1W8 29-147 limits assumed): as the sequence (Q9P1W8 29-147 limits assumed) above

[18] = biological target: T9, high affinity SIRP-α D1 variant CV1-3; test: SPR, Langmuir fit
How it was run: as §5

[19] = biological target: T18, human SIRP-α v1 D1 domain (human, UniProt P78324 31-149); test: SPR, Langmuir fit
T18 construct: also called human v1
How it was run: as §5
T18 sequence (P78324 31-149 limits assumed): as the sequence (P78324 31-149 limits assumed) above

[20] = biological target: T10, cynomolgus SIRP-α D1 domain (cyno2); test: SPR, Langmuir fit
How it was run: as §5

[21] = biological target: T19, human SIRPβ isoform 1 (human, UniProt O00241 30-148); test: SPR, Langmuir fit
T19 construct: also called SIRPb; sirpb1
How it was run: as §5
T19 sequence (O00241 30-148 limits assumed): as the sequence (O00241 30-148 limits assumed) above

[22] = biological target: T20, human SIRP-α v2 D1 domain (human); test: SPR, Langmuir fit
T20 construct: also called human v2
How it was run: as §5
T20 sequence (chain, as listed by the source limits assumed): as the sequence (chain, as listed by the source limits assumed) above

Row | Binder | binding result [4] | Kd [5] | binding result [6] | Kd [7] | Kd [8] | Kd [9] | binding result [10] | also measured
1 | B1 |  |  |  |  |  |  |  | Kd [1]: 0.214 nM; Kd [2]: 0.138 nM; Kd [3]: 0.0864 nM
2 | B2 | no binding | 0.138 nM | no binding | 0.233 nM | 0.214 nM | 0.0864 nM | no binding | 
3 | B3 | no binding | 0.155 nM | no binding |  | 0.254 nM | 0.0694 nM | no binding | 
4 | B4 | no binding | 0.125 nM | no binding | 0.779 nM | 0.184 nM | 0.0197 nM | no binding | 
5 | B5 | no binding | 0.102 nM | no binding | 0.522 nM | 0.149 nM | 0.0266 nM | no binding | 
6 | B6 |  |  |  |  |  |  |  | Kd [1]: 0.215 nM; Kd [2]: 0.118 nM; Kd [3]: 0.0688 nM
7 | B7 | no binding | 0.0969 nM | no binding | 0.539 nM | 0.151 nM | 0.029 nM | no binding | Kd [11]: 0.151 nM; Kd [12]: 0.029 nM; binding result [13]: binds; binding result [14]: no binding
8 | B8 |  |  |  |  |  |  |  | Kd [1]: 0.174 nM; Kd [2]: 0.116 nM; Kd [3]: 0.0598 nM
9 | B9 |  |  |  |  |  |  |  | binding result [15]: no binding (tested: Koff > 5 × 10^3 (legend)); binding result [16]: no binding (tested: Koff > 5 × 10^3 (legend)); koff [17]: 0.00315 s⁻¹; koff [18]: 0.00174 s⁻¹; koff [19]: 0.000535 s⁻¹; koff [20]: 0.000242 s⁻¹; koff [21]: 0.0017 s⁻¹; koff [22]: 0.00664 s⁻¹
10 | B10 |  |  |  |  |  |  |  | binding result [15]: no binding (tested: Koff > 5 × 10^3 (legend)); binding result [16]: no binding (tested: Koff > 5 × 10^3 (legend)); koff [18]: 0.00152 s⁻¹; koff [20]: 0.000318 s⁻¹
11 | B11 |  |  |  |  |  |  |  | binding result [15]: no binding (tested: Koff > 5 × 10^3 (legend)); binding result [16]: no binding (tested: Koff > 5 × 10^3 (legend)); koff [17]: 0.00426 s⁻¹; koff [18]: 0.00134 s⁻¹; koff [19]: 0.000595 s⁻¹; koff [20]: 0.000408 s⁻¹; koff [21]: 0.00167 s⁻¹; koff [22]: 0.00989 s⁻¹

From patent publication US20210363269A1 (ALX ONCOLOGY, published 2021)
